Reference: patent publication US20230218735A1 (Pfizer, published 2023)

What was measured:
C. difficile toxin A = C. difficile toxin A (Clostridium difficile, UniProt P16154 1-2710); assay: cell-based or functional assay
[1] = target: T1, genetically modified and chemically inactivated C. difficile toxoid A (Clostridium difficile, UniProt P16154 2-2710); assay: ITC
T1 construct: also called TxdA; the toxoid

B1: hCDIFA-32 (antibody, V domains shown)
VH: QVQLQESGPGLVKPSETLSLTCTVSGGSISSHYWSWIRQTPGKGLEYIGNIYYTGRTKYNPSLKSRVTISADMSKNQVSLKLNSVTAADTAVYYCARGGPLMDVWGQGTTVTVSS
VL: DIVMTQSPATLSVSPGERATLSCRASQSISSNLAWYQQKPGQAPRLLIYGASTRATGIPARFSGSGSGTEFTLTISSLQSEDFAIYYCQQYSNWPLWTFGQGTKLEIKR
- EC50 TcdA [RLU], toxin neutralization assay (TNA) on IMR90 cells (C. difficile toxin A): 306 RLU
- DH [1]: -12 kcal/mol
- Kd [1]: 21 nM
- Stoichiometry [1]: 0.21

B2: hCDIFA-55 (antibody, V domains shown)
VH: EVQLLESGAEVKKPGASVKVSCKASAYTFTTYGINWVRQAPGQGLEWMGWVSFSNGNTEYAQKFQGRVTMTTDTSTSTAFMELRSLRSDDTAVYYCASEKGELLSGCFDPWGQGTLVTVSS
VL: QSVLTQPPSVSAAPGQKVTISCSGSSSNIGNSLVSWYQHLPGTAPKLLISDNNERPSGIPDRFSGSKSGTSATLGITGLQTGDEADYYCGTWDSSLSVVVFGGGTKLTVLG
- EC50 TcdA [RLU], toxin neutralization assay (TNA) on IMR90 cells (C. difficile toxin A): 942000 RLU

B3: hCDIFA-59 (antibody, V domains shown)
VH: QVQLVESGGGLVQPGRSLRLSCRTSGFTFGDFALSWVRQAPGKGLEWVGYIRSKTFGGTTEYAASVKGRFTMSRDDSKSIAYLQMNSLKTEDTAVYFCTRASYGAFDYWGQGTLVTVSS
VL: DIVMTQSPSSLSASVGDTVTITCRAGQNIATYLHWYQQKPGKAPNLLIYDARTLQSGVPSRFSGSGSGTDFTLTINSLQPEDFATYYCQQSYNTPWTFGQGTKVEIKR
- EC50 TcdA [RLU], toxin neutralization assay (TNA) on IMR90 cells (C. difficile toxin A): 9 RLU

B4: hCDIFA-37 (antibody, V domains shown)
VH: QVQLLESGPGLVKTSGTLSLTCSVSGDSVSTNNWWTWVRQPPGKGLEWIGEIYYNGNTIYNPSFKSRVTISVNRSKNHFSLKLNSVTAADRAVYYCARRTWNDVGPFDYWGQGILVTVSS
VL: DIVMTQSPSSLSASIGDRVIITCRASQNINRYLNWYQQTAGKAPKLLIYGTSNLQSGVPSRFSGSGSGSGTDFTLTISSLQPEDFATYYCHQSYRTPQTFGQGTKLEIKR
- EC50 TcdA [RLU], toxin neutralization assay (TNA) on IMR90 cells (C. difficile toxin A): 37100 RLU
- DH [1]: -7.9 kcal/mol
- Kd [1]: 7 nM
- Stoichiometry [1]: 0.95

B5: hCDIFA-15 (antibody, V domains shown)
VH: QVQLVQSGAEVKKPGASVKISCKASGYTFVRYYMHWVRQAPGQGLEWMGLIDPSGGSTRYAQRFQGRVTMTRDTSTSTVYMELSGLRSEDTAVYYCARDGPFGGLSGGNWFDPWGQGTLVTVSS
VL: AIRMTQSPGTLSLSPGERATLSCRASQSLSFSYLAWYQQKPGQAPRLLIYGASSRATGIPDRFSGSGSGTDFALTISRLEPEDFAVYYCQQYGTSPLTFGGGTKVDIKR
- EC50 TcdA [RLU], toxin neutralization assay (TNA) on IMR90 cells (C. difficile toxin A): ~147 RLU
- DH [1]: -2.7 kcal/mol
- Kd [1]: 38 nM
- Stoichiometry [1]: 1.68

B6: hCDIFA-45 (antibody, V domains shown)
VH: QVQLVQSGPEVRKPGTSVKFSCKASGFTFTSAAMQWVRQARGQRLEWIGWIVVDSGNTNYAQKFQERVTITRDMSTSTVYMELSSLRSEDTAMYYCAASRGIVGTRGLFDSWGQGTLVTVSS
VL: EIVLTQSPSSLSSSVGDRVTITCRASQSIRNYLNWYQQKPGKAPKLLIYGASSLQSGVPPRFSGSGFGTDFTLTISNLQPEDFASYSCQQTYSTPLTFGGGTKLEIKR
- EC50 TcdA [RLU], toxin neutralization assay (TNA) on IMR90 cells (C. difficile toxin A): 1490 RLU
- DH [1]: -17.6 kcal/mol
- Kd [1]: 0.3 nM
- Stoichiometry [1]: 0.98

B7: hCDIFA-1 (antibody, V domains shown)
VH: QLQLQESGPGLVKPSETLSLICTVSGGSFSSSDFYWGWIRQPPGKGLEWIGNFYYNGSTSYNPSLKSRVTISVDTSKNQFSLKLRSVTAADTAVYYCARDYNFWNNSPNWFDPWGQGTLVTVSS
VL: EIVMTQSPATLSVSPGERATLSCRASQSISSNLAWYQQKLGQAPRLLIHGASTRATGIPARFSGSGSGTQFTLTISSLQSEDFAVYFCQQYNNWPPTFGGGTKVDIKR
- EC50 TcdA [RLU], toxin neutralization assay (TNA) on IMR90 cells (C. difficile toxin A): 5760 RLU
- DH [1]: -17.2 kcal/mol
- Kd [1]: 8 nM
- Stoichiometry [1]: 1.45

B8: hCDIFA-5 (antibody, V domains shown)
VH: EVQLVESGPGLVKPSETLSLTCAVSGGSISGYYWSWIRQPPGKGLEWIAYIYDSGSTSHNPSLKSRVTTSVDTSKNQFSLKLNSVTAADTAVYYCARSGKWALGAFDMWGQGTMVTVSS
VL: QSALTQPPSVSGAPGQRVTISCTGSSSNIGAGYDVHWYQQLPGTAPKLLISGNNNRPSGVPDRFSGSKSGTSASLAITGLQAEDEADYYCQSYDNDLSGLVVFGGGTKLTVLG
- EC50 TcdA [RLU], toxin neutralization assay (TNA) on IMR90 cells (C. difficile toxin A): 1450 RLU

B9: hCDIFA-7 (antibody, V domains shown)
VH: QVQLRESGPGLVKPSETLSLTCTVSGGSVSNYYWSWIRQPPGKGLEWIGYIYSSGTINFNPSLKGRVTISGDTSKNQFSLKLSSVTAADTAVYYCARSGKWALGAFDIWGQGTMVTVSS
VL: QSALTQPPSVSGAPGQRVTISCTGSSSNIGTGYDVHWYQQLPGKVPKLLIHGNGDRPSGVPDRFSASKSGTSASLAITGLQSEDEGDYYCQSYDNSLSGLVVFGGGTKLTVLG
- EC50 TcdA [RLU], toxin neutralization assay (TNA) on IMR90 cells (C. difficile toxin A): 13300 RLU
- DH [1]: -13.5 kcal/mol
- Kd [1]: 118 nM
- Stoichiometry [1]: 2.94

B10: hCDIFA-8 (antibody, V domains shown)
VH: QVQLVESGGGLVKPGGSLRLSCAASGFTFSTSSMNWVRQAPGKGLEWVSSINTSGDYIYYTDSVKGRFTISRDNAKNSLYLQMNSLRAEDTAVYYCARDLGTWRDYWGQGTLVTVSS
VL: QSVLTQPASVSGSPGQSITISCTGTSSDVGSYNLVSWYHQHPGKAPKLIIYEVSKRPSGVSNRFSGSKSGNTASLTISGLQAEDEADYYCYSYAGSSAFAWVFGTGTKLTVLG
- EC50 TcdA [RLU], toxin neutralization assay (TNA) on IMR90 cells (C. difficile toxin A): 35400 RLU
- DH [1]: -6.9 kcal/mol
- Kd [1]: 20 nM
- Stoichiometry [1]: 2.02

B11: hCDIFA-46 (antibody, V domains shown)
VH: EVQLVESGGGLVQPGGSLRLSCAASGFTVSRNYMTWVRQAPGKGLEWVSVIYSGGSTYHADSVKGRFTISRDNSKNTLNLQMSSLRAEDTAVYYCARPCPGSSISCDYNMDVWGQGTTVTVSS
VL: QAVVTQPASVSGSPGQSITISCTGTSSDVGGYNYVSWYQQHPGKAPKLIIYEVSNRPSGVSNRFSGSKSGNTASLTISGLQAEDEADYYCTSYTSSSMIDVFGTGTKLTVLG
- EC50 TcdA [RLU], toxin neutralization assay (TNA) on IMR90 cells (C. difficile toxin A): 1490 RLU
- DH [1]: -11.3 kcal/mol
- Kd [1]: 3 nM
- Stoichiometry [1]: 1

B12: hCDIFA-56 (antibody, V domains shown)
VH: QVQLVQSGAEVKKPGASVKVSCKVSGYTLPELSMHWVRQAPGKGLEWMGGFDPEDDDTIYAQKFQGRVTMTEDTSTDTAYLELSSLRSEDTAVYYCATDSSPLYNENYFGSAAFDVWGQGTTVTVSS
VL: AIRMTQSPSSLSASVGDRVTITCRASQGISTYLAWYQQKPGKAPKLLLYAASRLESGVPSRFSGSGSGTDYTLTINSLQPEDFATYYCQQYDRMPRTFGQGTKVEIKR
- EC50 TcdA [RLU], toxin neutralization assay (TNA) on IMR90 cells (C. difficile toxin A): 111000 RLU
- DH [1]: -10.3 kcal/mol
- Kd [1]: 5 nM
- Stoichiometry [1]: 0.78

B13: hCDIFA-6 (antibody, V domains shown)
VH: QVQLQESGPGLVKPSQTLSLTCSVSGDSSSSGDYYWNWIRQPAGKGLEWIGYIYTSGSTNYNPSLKSRVTISEDTSKKQFSLKLTSVTAADTAVYYCARGIVGVGLDYWGQGTLVTVSS
VL: EIVMTQSPSTLSASVGDRVTITCRASQTISSWLAWYQQKPGRAPKLLMSKTSTLQPGVPSRFSGSGSGTEFTLTISGLQPDDVATYYCHHYNSWPFGPGTKVEIKR
- EC50 TcdA [RLU], toxin neutralization assay (TNA) on IMR90 cells (C. difficile toxin A): 1420 RLU

B14: hCDIFA-11 (antibody, V domains shown)
VH: QVQLVQSATEMKKPGASVKVSCKASGYTFSDSYMHWVRQAPGQGLEWMGWINPDSGGTNYAQKFKGWVTMTRDTSINTVYMELRRLRSDDTAVYYCARDGGDYARHSLDYWGQGTLVTVSS
VL: DVVMTQSPGTLSLSPGERVTLSCRASQSVNSDYLVWYQQKPGQAPRLLIYGASSRATGIPDRFSGSGSGPDFTLTISRLEPEDVAVYYCQLYGGLFTFGQGTRLEIKR
- EC50 TcdA [RLU], toxin neutralization assay (TNA) on IMR90 cells (C. difficile toxin A): 60 RLU
- DH [1]: -17.9 kcal/mol
- Kd [1]: 4 nM
- Stoichiometry [1]: 0.97

B15: hCDIFA-35 (antibody, V domains shown)
VH: EVQLVQSGGGVVQPGRSLKLSCAASGFSFSSHGMHWVRQAPGKGLEWVALISYDGSYKYYEDSVKGRFTISRDNSKNTLYLQMNSLRAEDTAVYYCAKDWERYCSGMSCYLRNSLDYWGQGTLVTVSS
VL: QSALTQPPSVSVAPGKTAGITCGGPNIGSKSVHWYQRKPGQAPVLVVYDDRYRPSGIPERFSGSNSGNTATLSISRVEAGDEADYYCQVWDSRSDHVVFGGGTKLTVLG
- EC50 TcdA [RLU], toxin neutralization assay (TNA) on IMR90 cells (C. difficile toxin A): ~52 RLU
- DH [1]: -16.6 kcal/mol
- Kd [1]: 8 nM
- Stoichiometry [1]: 1.04

B16: hCDIFA-24 (antibody, V domains shown)
VH: QVQLVQSGGGVVQPGRSLRLSCAASGFSFSTHGMHWVRQAPGKGLEWVAVISYDGSNKYYADSVKGRFTISRDNSKNTVYLQMNSLRAEDTAVFYCAKPRDNYYYYGMDVWGQGTTVTVSS
VL: AIRMTQSPSSLSASTGNRVTITCRASQGISSYLAWYQQKPGKAPNLLIYAASTLQSGVPSRFTGSGSGTDFTLTISRLHSENFATYYCQQYFNYPRTFGQGTRLEIKR
- EC50 TcdA [RLU], toxin neutralization assay (TNA) on IMR90 cells (C. difficile toxin A): 6300 RLU
- DH [1]: -11.2 kcal/mol
- Kd [1]: 6 nM
- Stoichiometry [1]: 1.07
